{
  "source": "patent US12076390",
  "about": "(Dana-Farber, dated 2024)",
  "key": {"[1]": {"biological_target": "DTT reduced, trimeric HA2 (tHA2) of surface-expressed H3-A2/68 (influenza A virus A/Aichi/2/68 (H3N2), UniProt P03437 346-566)", "experiment": "flow cytometry on HA-transfected cells after trypsin, pH 4.9 and DTT"}, "[2]": {"biological_target": "Cell surface-expressed HA of A/Aichi/2/68 (H3-A2/68) (influenza A virus A/Aichi/2/68 (H3N2), UniProt P03437 17-566)", "experiment": "flow cytometry on HA-transfected cells"}, "[3]": {"biological_target": "HA on infectious virus A/Brisbane/10/07 (H3N2-BR07) (influenza A virus A/Brisbane/10/07 …)", "experiment": "cell-based or functional assay"}, "[4]": {"biological_target": "HA of A/Vietnam/1203/04 on pseudotyped virus (H5-VN04 pseudovirus) (influenza A virus A/Vietnam/1203/04 …)", "experiment": "cell-based or functional assay"}, "[5]": {"biological_target": "Recombinant full length HA of H1 A/Puerto Rico/8/34 (H1-PR8) (influenza A virus A/Puerto Rico/8/34 …, UniProt P03452 18-565)", "experiment": "recombinant HA; footnote says SPR biosensor, methods describe BLI"}, "[6]": {"biological_target": "Recombinant full length HA of H1 A/Solomon Islands/3/06 (H1-SI06) (influenza A virus A/Solomon …)", "experiment": "recombinant HA; footnote says SPR biosensor, methods describe BLI"}, "[7]": {"biological_target": "Recombinant full length HA of H14 A/mallard/Astrakhan/263/82 (H14-AS82) (influenza A virus …, UniProt P26136 18-568)", "experiment": "recombinant HA; footnote says SPR biosensor, methods describe BLI"}},
  "data": [
    {"binder": "3I14 IgG1 (antibody, V domains shown) VH: QVQLLESGGGVVQPGRSLRLSCAASGFTFSNYGMHWVRQAPGKGLEWVAIISFDGSKKYYANSVKGRSTISRDNSKNTLSLQMNSLGPEDTALYYCAKLPSPYYFDSRFVWVAASAFHFWGQGILVTVSS VL: NFMLTQPPSASGTPGQRVTISCSGSSSNIGGNTVHWFQQLPGTAPKLLIYTNSLRPSGVPDRFSGSKSGTSASLAISGLQSEDEADYYCAAWDDSLNGQVFGGGTKLTVL", "values": [
      {"measurement": "binding result", "setting": "[1]", "result": "no binding"},
      {"measurement": "binding result", "setting": "[2]", "result": "binds"},
      {"measurement": "IC50, neutralization of infectious H3-BR07 virus", "setting": "[3]", "result": 0.305, "unit": "µg/mL"},
      {"measurement": "IC50, neutralization of H5-VN04 pseudovirus", "setting": "[4]", "result": 0.0816, "unit": "µg/mL"},
      {"measurement": "IC50, neutralization of pseudovirus", "setting": "[4]", "result": 2.14, "unit": "µg/mL"},
      {"measurement": "Kd", "setting": "[5]", "result": 0.08, "unit": "nM"},
      {"measurement": "Kd", "setting": "[6]", "result": 0.03, "unit": "nM"},
      {"measurement": "Kd", "setting": "[7]", "result": 0.29, "unit": "nM"}
    ]}
  ]
}
